The record followed here is US20220251518A1 (published 2022).

The experiment deals with T1, Aβ1-42, monomer and/or protofibrils (form not told for the result) (human, UniProt P05067 672-713).
T1 construct: domain: amyloid beta (Aβ) 1-42 peptide; also called Aβ1-42 peptide or protofibrils; mixture of Aβ1-42 peptide (monomer) and protofibrils
In words: BLI (Octet RED 96), antibody captured on anti-rat IgG probe; monomer or protofibrils not told. For orientation: Biolayer interferometry detects binding as a change in optical thickness at a sensor tip.

T1 sequence (P05067 672-713 limits assumed): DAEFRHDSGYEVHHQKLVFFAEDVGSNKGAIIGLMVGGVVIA

B1: monoclonal antibody 11G10 (antibody, V domains shown)
VH: EVQLQQSGAEIVKPGASVKLSCKASGYTFTSYWMHWVKQRPGQGLEWIGEIDPSDSYTNYNQKFKGKATLTVDKSSSTAYMQLRSLTSEDSAVYYCARSFHGNLFVYWGQGTLVTVSA
VL: QIVLTQSPAIMSASPGEKVTITCSASSSVSYMHWFQQKPGTSPKLWIYSTSNLATGVPARFSGSGSGTSYSLTISRMEAEDAATYYCQQRSSYPLTFGAGTKLEIK
Usually Kd stands for a measure of binding affinity in units of concentration. Low values mean a tighter complex, high ones a looser complex. For the molecule B1, the Kd was found to be 1 pM.
